Source: the supplement of paper PMC10567573

B1: TMEM192 (parent)
chain: LWILHLLLECYIQYHHSKIRNRGY

Variants of: B1
Test: protein stability index of a GFP-peptide fusion (GPS, HEK-293T) (PSI 1-6); higher = more stable
Settings: c terminus: a fixed tail appended
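Also: lentivirally expressed fusions sorted by FACS into six bins by GFP to DsRed ratio, PSI derived from sequencing read proportions per bin multiplied by bin number.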

Variant | protein stability index
L1Q | 3.9
L1H | 4.56
L1I | 2.1
L1A | 3.09
C10S | 1.72
C10P | 2.22
C10G | 1.18
C10R | 2.03
C10F | 2.53
C10H | 1.98
C10E | 1.94
C10K | 1.72
C10W | 1.4
C10A | 2.09
C10Y | 2.2
C10N | 1.79
C10L | 4.54
C10D | 2.63
C10Q | 1.95
L7Q | 2.34
L7I | 3.46
L7D | 3.52
L7R | 1.89
L7Y | 2.48

Variant | protein stability index
L7E | 2.73
L7V | 3.56
L7A | 3.25
L7T | 3.78
L7M | 2.51
L7P | 2.33
L7F | 1.88
L7H | 2.78
L7N | 2
L7C | 2.32
L6T | 2.81
L6Y | 1.8
L6G | 1.69
L6K | 2
L6R | 1.73
L6Q | 1.99
L6M | 1.65
L6H | 2.37
L6I | 1.65
L6D | 1.87
L6A | 2.43
L6S | 1.62
L6P | 1.97
L6E | 2.09

Variant | protein stability index
L6C | 1.67
L6N | 1.97
W2N | 2.28
W2R | 1.63
W2P | 1.23
W2T | 1.86
W2H | 2.14
W2G | 2.73
W2F | 3.58
W2Y | 1.25
W2D | 1.88
W2A | 2.2
W2V | 3.84
W2E | 1.73
W2S | 1.58
W2M | 2.41
W2K | 1.94
W2Q | 2.66
H15P | 2.18
H15D | 1.56
H15G | 2.37
H15N | 2.7
H15L | 2.14
H15M | 2.41

Variant | protein stability index
H15Q | 2.24
H15C | 2.19
E9M | 2.33
E9K | 3.05
E9V | 3.35
E9T | 1.96
E9C | 3.27
E9D | 1.94
E9N | 1.44
E9P | 3.73
E9I | 2.56
E9R | 2.99
E9F | 3.6
E9W | 3.27
E9Q | 2.48
E9S | 2.28
E9L | 1.7
E9H | 1.47
E9G | 2
I12V | 2.27
I12D | 1.5
I12K | 2.21
I12M | 1.82
I12L | 2.53

Variant | protein stability index
I12G | 1.07
I12Q | 1.62
I12C | 1.69
I12H | 1.95
I12N | 2.13
I12R | 2.8
I12S | 1.94
I12W | 1.79
I12T | 2.58
I12E | 1.88
I12F | 3.41
Y11H | 1.77
Y11N | 3.81
Y11T | 2.21
Y11E | 3.19
Y11S | 3.45
Y11M | 2.48
Y11K | 1.93
Y11D | 1.25
Y11A | 2.47
Y11G | 3.4
Y11Q | 2.06
Y11I | 2.47
Y11F | 3.94

Variant | protein stability index
Y14Q | 2
Y14W | 1.1
Y14I | 1.79
Y14G | 1.41
Y14T | 2.49
Y14A | 3.1
Y14L | 3.2
Y14R | 2.11
Y14S | 2.47
Y14V | 2.53
Y14E | 2.18
Y14N | 1.53
Y14P | 2.67
Y14C | 2.16
Y14D | 2.21
Y14K | 2.01
Y14F | 2.96
Y14H | 2.31
L8Y | 2.71
L8I | 3.28
L8T | 2.86
L8P | 2.11
L8K | 2.54
L8D | 4.78

Variant | protein stability index
L8R | 2.96
L8F | 2.57
L8H | 3.75
L8S | 4.08
L8M | 2.01
L8W | 2.98
Q13G | 1.39
Q13H | 2.98
Q13F | 2.88
Q13M | 2.08
Q13E | 1.8
Q13N | 3.19
Q13Y | 1.85
Q13L | 2
Q13K | 2.05
Q13R | 2.9
Q13T | 1.75
Q13C | 2.06
Q13I | 2.75
Q13A | 3.94
Q13D | 2.32
Q13S | 1.9
Q13P | 3
